Among the data in paper PMC3580236 are Kd values, retold here.

The target in this data set is T1, Rev1 G193R (1-746) (Saccharomyces cerevisiae (expression …, UniProt P12689 1-746, G193R)).
T1 sequence: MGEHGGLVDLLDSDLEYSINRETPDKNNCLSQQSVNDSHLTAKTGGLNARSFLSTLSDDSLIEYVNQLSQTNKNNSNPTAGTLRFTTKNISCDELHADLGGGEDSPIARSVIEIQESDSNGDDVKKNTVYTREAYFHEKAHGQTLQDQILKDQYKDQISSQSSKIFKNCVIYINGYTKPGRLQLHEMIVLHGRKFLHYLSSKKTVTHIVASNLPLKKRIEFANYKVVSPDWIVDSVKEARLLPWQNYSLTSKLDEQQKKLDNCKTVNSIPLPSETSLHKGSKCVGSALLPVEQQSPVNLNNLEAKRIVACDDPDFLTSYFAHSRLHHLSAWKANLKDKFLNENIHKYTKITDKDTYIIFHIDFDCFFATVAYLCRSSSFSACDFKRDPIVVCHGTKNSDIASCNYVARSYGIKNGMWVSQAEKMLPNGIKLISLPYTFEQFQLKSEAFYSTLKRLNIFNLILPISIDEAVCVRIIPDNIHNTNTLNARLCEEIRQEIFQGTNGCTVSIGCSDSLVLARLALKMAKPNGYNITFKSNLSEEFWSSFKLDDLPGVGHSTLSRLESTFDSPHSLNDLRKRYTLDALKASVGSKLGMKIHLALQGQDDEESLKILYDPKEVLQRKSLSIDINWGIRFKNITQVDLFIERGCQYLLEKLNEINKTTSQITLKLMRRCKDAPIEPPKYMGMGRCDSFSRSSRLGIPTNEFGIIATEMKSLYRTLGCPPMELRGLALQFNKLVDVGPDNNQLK
Nature of the data set: pre-steady-state burst amplitude titration.

B1: 24/45-mer primer-template (dsDNA)
DNA 1: GCCTCGCAGCCGTCCAACCAACTC
DNA 2: GGACGGCATTGGATCGACCTGGAGTTGGTTGGACGGCTGCGAGGC
Regarding B1, the dissociation constant (Kd) (in general, the free concentration of one partner at which half of the binding sites on the other are occupied at equilibrium, for simple one-to-one binding) amounted to 16 ± 5 nM.
